Data taken from patent US11306156.
Values belong to the substance of their own block, whether it stands above or below them.

Tests used:
[1] = target: tissue factor (TF) antigen (UniProt P13726); assay: SPR (ProteOn XPR36), His-tagged Fab captured on anti-penta His, TF as analyte, 1:1 fit
[2] = target: tissue factor (TF) antigen (UniProt P13726); assay: SPR; reference wild-type D3H44 Fab
[3] = target: tissue factor (TF) antigen (UniProt P13726); assay: SPR, Fab captured on anti-penta-His, TF as analyte, 1:1 fit
[4] = target: tissue factor (TF) antigen (UniProt P13726); assay: SPR, Fab captured on anti-penta His, TF injected, 1:1 fit
[5] = target: tissue factor (TF) antigen (UniProt P13726); assay: SPR, Fab captured by anti-His, TF as analyte
[6] = target: tissue factor (TF) antigen (UniProt P13726); assay: SPR (ProteOn XPR36): His-tagged Fab captured on anti-penta-His surface, TF as analyte, 1:1 fit

Chain of tissue factor (TF) antigen (P13726 33-251 limits assumed): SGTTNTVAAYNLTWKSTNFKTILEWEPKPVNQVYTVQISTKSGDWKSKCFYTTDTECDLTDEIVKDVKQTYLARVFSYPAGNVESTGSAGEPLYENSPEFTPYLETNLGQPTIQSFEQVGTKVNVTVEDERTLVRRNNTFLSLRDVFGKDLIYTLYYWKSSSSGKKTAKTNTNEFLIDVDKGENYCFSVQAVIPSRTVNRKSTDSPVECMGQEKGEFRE

Kd [1]: 0.14 nM
Substance: D3H44 Fab heterodimer, H1 A139C_C233S / L1 F116C_C214S (H1L1 Fab of LCCA Set # 9041)

Kd [1]: 0.16 nM
Substance: D3H44 Fab heterodimer, H1 F122C_C233S / L1 S121C_C214S (H1L1 Fab of LCCA Set # 9043)

Kd [1]: 0.18 nM
Substance: D3H44 Fab heterodimer, H1 P175C_C233S / L1 S162C_C214S (H1L1 Fab of LCCA Set # 9044)

Change in KD with respect to wild type (-(log(KD design) - log(KD wt))) [2]: -0.12
Change in KD with respect to wild type (-(log(KD design) - log(KD wt))) [3]: -0.12
Kd [3]: 0.2 nM
Kd [4]: 0.2 nM
Substance: D3H44 Fab heterodimer, H L124E_L143E_K145T / L Q124K_V133G_Q160K_S176R

Change in KD with respect to wild type (-(log(KD design) - log(KD wt))) [2]: -0.1
Change in KD with respect to wild type (-(log(KD design) - log(KD wt))) [3]: -0.1
Kd [3]: 0.2 nM
Kd [4]: 0.2 nM
Substance: D3H44 Fab heterodimer, H L124R_D146N_Q179K / L Q124E_V133G_S176D_T178E_T180E

Change in KD with respect to wild type (-(log(KD design) - log(KD wt))) [2]: -0.04
Kd [4]: 0.17 nM
Substance: D3H44 Fab heterodimer, H L124R_D146N_Q179K / L V133G_Q160E_S176D_T180E

Change in KD with respect to wild type (-(log(KD design) - log(KD wt))) [2]: -0.01
Kd [4]: 0.16 nM
Substance: D3H44 Fab heterodimer, H L124R_D146N_Q179K / L V133G_S176D_T178E_T180E

Change in KD with respect to wild type (-(log(KD design) - log(KD wt))) [2]: -0.15
Change in KD with respect to wild type (-(log(KD design) - log(KD wt))) [3]: -0.15
Kd [3]: 0.22 nM
Kd [4]: 0.22 nM
Substance: D3H44 Fab heterodimer, H L124R_Q179K / L Q124E_V133G_S176D_T178E_T180E

Change in KD with respect to wild type (-(log(KD design) - log(KD wt))) [2]: -0.08
Kd [4]: 0.19 nM
Substance: D3H44 Fab heterodimer, H L124R_Q179K / L V133G_Q160E_S176D_T180E

Change in KD with respect to wild type (-(log(KD design) - log(KD wt))) [2]: -0.16
Kd [4]: 0.23 nM
Substance: D3H44 Fab heterodimer, H L124R_Q179K / L V133G_S176D_T178E_T180E

Change in KD with respect to wild type (-(log(KD design) - log(KD wt))) [2]: -0.23
Change in KD with respect to wild type (-(log(KD design) - log(KD wt))) [3]: -0.23
Kd [3]: 0.26 nM
Kd [4]: 0.26 nM
Substance: D3H44 Fab heterodimer, H L124R_S186K / L Q124E_V133G_S176D_T178D_T180E

Change in KD with respect to wild type (-(log(KD design) - log(KD wt))) [2]: -0.07
Change in KD with respect to wild type (-(log(KD design) - log(KD wt))) [3]: -0.07
Kd [3]: 0.18 nM
Kd [4]: 0.18 nM
Substance: D3H44 Fab heterodimer, H L124R_S186K / L V133G_S176D_T178D_T180E

Change in KD with respect to wild type (-(log(KD design) - log(KD wt))) [2]: -0.17
Change in KD with respect to wild type (-(log(KD design) - log(KD wt))) [3]: -0.17
Kd [3]: 0.23 nM
Kd [4]: 0.23 nM
Substance: D3H44 Fab heterodimer, H L124R_S186K / L V133G_S176D_T178E_T180E

Change in KD with respect to wild type (-(log(KD design) - log(KD wt))) [2]: -0.21
Change in KD with respect to wild type (-(log(KD design) - log(KD wt))) [3]: -0.21
Kd [3]: 0.26 nM
Kd [4]: 0.26 nM
Substance: D3H44 Fab heterodimer, H L124R_S186R / L Q124E_V133G_S176D_T178D_T180E

Change in KD with respect to wild type (-(log(KD design) - log(KD wt))) [2]: -0.04
Change in KD with respect to wild type (-(log(KD design) - log(KD wt))) [3]: -0.04
Kd [3]: 0.17 nM
Kd [4]: 0.17 nM
Substance: D3H44 Fab heterodimer, H L124R_S186R / L V133G_S176D_T178D_T180E

Kd [5]: 0.27 nM
Change in KD of h1|1 Fab heterodimer with respect to wild type (-(log(KD design) - log(KD wt))) [2]: -0.24
Substance: D3H44 Fab heterodimer, heavy L124E_L143D_K145M / light Q124K_V133G_Q160K_S176R

Kd [5]: 0.22 nM
Change in KD of h1|1 Fab heterodimer with respect to wild type (-(log(KD design) - log(KD wt))) [2]: -0.15
Substance: D3H44 Fab heterodimer, heavy L124E_L143D_K145M / light Q124K_V133G_S176R_T178K

Kd [5]: 0.19 nM
Change in KD of h1|1 Fab heterodimer with respect to wild type (-(log(KD design) - log(KD wt))) [2]: -0.08
Substance: D3H44 Fab heterodimer, heavy L124E_L143D_K145T / light Q124K_V133G_S176R_T178K

Kd [5]: 0.16 nM
Change in KD of h1|1 Fab heterodimer with respect to wild type (-(log(KD design) - log(KD wt))) [2]: -0.02
Substance: D3H44 Fab heterodimer, heavy L124E_L143D_K145T / light Q124K_V133G_S176R_T178R

Kd [5]: 0.28 nM
Change in KD of h1|1 Fab heterodimer with respect to wild type (-(log(KD design) - log(KD wt))) [2]: -0.26
Substance: D3H44 Fab heterodimer, heavy L124E_L143E_K145M / light Q124K_V133G_Q160K_S176R

Kd [5]: 0.24 nM
Change in KD of h1|1 Fab heterodimer with respect to wild type (-(log(KD design) - log(KD wt))) [2]: -0.19
Substance: D3H44 Fab heterodimer, heavy L124E_L143E_K145M / light Q124K_V133G_S176R_T178K

Kd [5]: 0.31 nM
Change in KD of h1|1 Fab heterodimer with respect to wild type (-(log(KD design) - log(KD wt))) [2]: -0.29
Substance: D3H44 Fab heterodimer, heavy L124E_L143E_K145M / light Q124K_V133G_S176R_T178R

Kd [5]: 0.2 nM
Change in KD of h1|1 Fab heterodimer with respect to wild type (-(log(KD design) - log(KD wt))) [2]: -0.12
Substance: D3H44 Fab heterodimer, heavy L124E_L143E_K145T / light Q124K_V133G_Q160K_S176R

Kd [5]: 0.22 nM
Change in KD of h2|2 Fab heterodimer with respect to wild type (-(log(KD design) - log(KD wt))) [2]: -0.15
Substance: D3H44 Fab heterodimer, heavy L124R_Q179K / light Q124E_V133G_S176D_T178E_T180E

Kd [5]: 0.23 nM
Change in KD of h2|2 Fab heterodimer with respect to wild type (-(log(KD design) - log(KD wt))) [2]: -0.16
Substance: D3H44 Fab heterodimer, heavy L124R_Q179K / light V133G_S176D_T178E_T180E

Kd [5]: 0.26 nM
Change in KD of h2|2 Fab heterodimer with respect to wild type (-(log(KD design) - log(KD wt))) [2]: -0.23
Substance: D3H44 Fab heterodimer, heavy L124R_S186K / light Q124E_V133G_S176D_T178D_T180E

Kd [5]: 0.18 nM
Change in KD of h2|2 Fab heterodimer with respect to wild type (-(log(KD design) - log(KD wt))) [2]: -0.07
Substance: D3H44 Fab heterodimer, heavy L124R_S186K / light V133G_S176D_T178D_T180E

Kd [5]: 0.26 nM
Change in KD of h2|2 Fab heterodimer with respect to wild type (-(log(KD design) - log(KD wt))) [2]: -0.21
Substance: D3H44 Fab heterodimer, heavy L124R_S186R / light Q124E_V133G_S176D_T178D_T180E

Kd [5]: 0.22 nM
Change in KD of h2|2 Fab heterodimer with respect to wild type (-(log(KD design) - log(KD wt))) [2]: -0.15
Substance: D3H44 Fab heterodimer, heavy L124R_S186R / light V133G_S176D_T178E_T180E

Change in median values of KD of h1|1 Fab heterodimer compared to wild type (-(log(KD design)-log(KD wt))) [6]: 0.04 log units
Kd [6]: 0.14 nM
Substance: D3H44 H1L1 Fab heterodimer of LCCA set 9060 (H1 A139W_L143E_K145T_Q179E; L1 F116A_Q124R_L135V_T178R)

Change in median values of KD of h1|1 Fab heterodimer compared to wild type (-(log(KD design)-log(KD wt))) [6]: -0.04 log units
Kd [6]: 0.17 nM
Substance: D3H44 H1L1 Fab heterodimer of LCCA set 9066 (H1 F122C_L124E; L1 Q124C_V133G_S176R)

Change in median values of KD of h1|1 Fab heterodimer compared to wild type (-(log(KD design)-log(KD wt))) [6]: -0.01 log units
Kd [6]: 0.16 nM
Substance: D3H44 H1L1 Fab heterodimer of LCCA set 9082 (H1 K145T_Q179E; L1 S131K)

Change in median values of KD of h1|1 Fab heterodimer compared to wild type (-(log(KD design)-log(KD wt))) [6]: 0.1 log units
Kd [6]: 0.12 nM
Substance: D3H44 H1L1 Fab heterodimer of LCCA sets 9101 and 9100 (H1 L124A_Q179K; L1 Q124E_V133W_T180E)

Change in median values of KD of h1|1 Fab heterodimer compared to wild type (-(log(KD design)-log(KD wt))) [6]: -0.21 log units
Kd [6]: 0.26 nM
Substance: D3H44 H1L1 Fab heterodimer of LCCA sets 9571 and 9572 (H1 L124W_L143F_K145T_Q179E; L1 S131K_V133A_S176T_T178L)

Change in median values of KD of h1|1 Fab heterodimer compared to wild type (-(log(KD design)-log(KD wt))) [6]: 0.1 log units
Kd [6]: 0.13 nM
Substance: D3H44 H1L1 Fab heterodimer of LCCA sets 9786 and 9785 (H1 Q179K; L1 Q124E_T178E_T180E)
